From article PMC6820745, “Structural and thermodynamic basis for the recognition of the substrate-binding cleft on hen egg lysozyme by a single-domain antibody” (Scientific Reports, 2019)

Columns and labels:
Conditions in all cases: both partners purified
hen egg lysozyme [1] = target: T1, hen egg lysozyme (Gallus gallus (hen), UniProt P00698); experiment: SPR; Biacore T200; HEL immobilised on CM5 chip (200 RU); VHH flowed over; 25 °C; PBS with 0.005% Tween 20; global fit to a 1:1 binding model
T1 construct: hen egg lysozyme (lysozyme C), bought from Wako Pure Chemical; also called HEL; source: bought: Wako Pure Chemical (Cat. No. 126-02671), used without further purification
How it was run: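 Binding of the His6-tagged single-domain antibody, expressed in E. coli BL21(DE3) and purified by Ni-NTA and size-exclusion chromatography, was measured by surface plasmon resonance on a Biacore T200 against hen egg lysozyme immobilised on a CM5 chip (200 RU). Runs were at 25 °C in PBS with 0.005% Tween 20, with 300 s contact, 600 s dissociation and regeneration in 1.0 M Arg-HCl pH 4.4. Antibody concentrations were adjusted per mutant. Kd, kon and koff came from global fitting to a 1:1 binding model in BiaEvaluation.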

hen egg lysozyme [2] = target: T1, hen egg lysozyme; experiment: SPR; HEL immobilised; measured at several temperatures; van't Hoff analysis (non-linear regression); PBS with 0.005% Tween 20; KD given for 25 °C from the van't Hoff free energy
hen egg lysozyme [3] = target: T1, hen egg lysozyme; experiment: ITC; iTC200; 25 °C; PBS; VHH (10 uM) in the cell titrated with HEL (100 uM); 1:1 binding model
hen egg lysozyme [4] = target: T1, hen egg lysozyme; experiment: SPR; as a1, but KD from the responses in equilibrium (Scatchard plot, 1:1 model); HEL immobilised; 25 °C; PBS with 0.005% Tween 20
hen egg lysozyme [5] = target: T1, hen egg lysozyme; experiment: SPR; HEL immobilised; measured at several temperatures; van't Hoff analysis (non-linear regression); PBS with 0.005% Tween 20; KD given for 25 °C from the van't Hoff free energy; remark: listed apart in the source

T1 sequence (P00698 19-147): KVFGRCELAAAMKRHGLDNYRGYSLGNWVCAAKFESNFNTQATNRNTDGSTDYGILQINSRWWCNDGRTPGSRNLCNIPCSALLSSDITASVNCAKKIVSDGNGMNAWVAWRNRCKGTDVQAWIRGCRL

B1: D3-L11 Y52A (VHH)
VHH: DVQLVESGGGSVQAGGSLRLSCAASGSTDSIEYMTWFRQAPGKAREGVAALATHTGNTYYTDSVKGRFTISQDKAKNMAYLRMDSVKSEDTAIYTCGATRKYVPVRFALDQSSYDYWGQGTQVTVSS
notes: as the VHH chain of m2 with the stated change; source: E. coli BL21(DE3), purified (Ni-NTA, SEC)
Kd (hen egg lysozyme [1]): 46.1 nM | koff (hen egg lysozyme [1]): 0.128 s⁻¹ | kon (hen egg lysozyme [1]): 2.77e+06 M⁻¹ s⁻¹ | Kd (hen egg lysozyme [2]): 46 ± 19 nM | ddH against WT antibody (ITC) (hen egg lysozyme [3]): 9.1 ± 1.4 kcal/mol | Kd (hen egg lysozyme [4]): 144 ± 22 nM | dH (van't Hoff) (hen egg lysozyme [5]): -11 kcal/mol
